Assay results taken from publication PMC9953004, “Scandium-44 Radiolabeled Peptide and Peptidomimetic Conjugates Targeting Neuropilin-1 Co-Receptor as Potential Tools for Cancer Diagnosis and Anti-Angiogenic Therapy” (Biomedicines, 2023).
Primed or numbered codes have the meaning given here. Where no end group is shown, it is not given here. Side-chain parts run from the residue outwards. [ ]: non-standard residue; d: D form. The star is where a group is joined. DOTA″ = DOTA chelator, carrying Sc, O=C([O-])CN1CCN(CC(=O)[O-])CCN(CC(=O)*)CCN(CC(=O)[O-])CC1.[Sc+3]; DOTA′ = DOTA-Sc chelate, O=C([O-])CN1CCN(CC(=O)[O-])CCN(CC(=O)*)CCN(CC(=O)[O-])CC1.[Sc+3]; hArg = N=C(N)NCCCC[C@H](N)C(=O)O; Dab = NCC[C@H](N)C(=O)O; Ahx = NCCCCCC(=O)O

T1: Recombinant human NRP-1 (neuropilin-1 co-receptor) (human, UniProt O14786 22-856)
T1 construct: neuropilin-1, human, recombinant; It is probably a soluble extracellular construct (surmise); source: bought: BioLegend
T1 sequence (looked up): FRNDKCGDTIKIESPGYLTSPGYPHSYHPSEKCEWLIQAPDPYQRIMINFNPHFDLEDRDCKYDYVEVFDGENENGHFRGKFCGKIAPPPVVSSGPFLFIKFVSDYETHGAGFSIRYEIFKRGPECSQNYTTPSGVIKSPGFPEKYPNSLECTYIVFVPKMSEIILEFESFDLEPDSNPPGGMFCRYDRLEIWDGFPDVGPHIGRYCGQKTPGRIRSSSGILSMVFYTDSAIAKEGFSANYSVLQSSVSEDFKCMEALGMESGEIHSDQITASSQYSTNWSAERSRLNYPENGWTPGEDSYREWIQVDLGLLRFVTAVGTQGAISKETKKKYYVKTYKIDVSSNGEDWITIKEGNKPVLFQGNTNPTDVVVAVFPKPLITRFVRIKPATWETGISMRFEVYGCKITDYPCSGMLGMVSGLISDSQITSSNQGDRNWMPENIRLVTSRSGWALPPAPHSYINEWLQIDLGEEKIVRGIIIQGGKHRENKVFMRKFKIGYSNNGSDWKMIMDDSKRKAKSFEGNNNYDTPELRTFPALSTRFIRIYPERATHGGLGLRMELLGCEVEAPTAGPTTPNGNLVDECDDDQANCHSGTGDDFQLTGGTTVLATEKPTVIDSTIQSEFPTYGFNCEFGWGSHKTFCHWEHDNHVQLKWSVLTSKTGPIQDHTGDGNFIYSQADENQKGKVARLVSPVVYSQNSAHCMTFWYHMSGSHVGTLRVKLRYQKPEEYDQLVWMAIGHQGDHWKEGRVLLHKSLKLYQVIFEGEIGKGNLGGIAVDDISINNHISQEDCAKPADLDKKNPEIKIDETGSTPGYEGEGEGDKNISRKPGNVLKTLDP

B1: branched peptidomimetic Lys(hArg)-Dab-Pro-Arg (K4R) (peptide)
chain: K(hArg)[Dab]PR
B2: Lys(DOTA-Sc)-A7R (peptide)
peptide: H-K(DOTA′)ATWLPPR
modifications: also: DOTA chelating Sc
notes: Lys(DOTA)-Ala-Thr-Trp-Leu-Pro-Pro-Arg; the Lys is a linker before A7R; also called Sc-1bis; source: bought: CASLO ApS (conjugate 1bis), complexed with ScCl3
B3: retro-inverso isomer of A7R (DArg-DPro-DPro-DLeu-DTrp-DThr-DAla) (peptide)
peptide: [dR][dP][dP][dL][dW][dT][dA]
notes: also called ^DR7A
B4: Lys(hArg)-Dab(Ahx-DOTA-Sc)-Pro-Arg (peptide)
chain: K(hArg)[Dab]([Ahx-DOTA″])PR
modifications: also: Sc chelated by DOTA
B5: Ala-Thr-Trp-Leu-Pro-Pro-Arg (A7R) heptapeptide (peptide)
peptide: ATWLPPR
notes: found by a mutated phage library screening; free C-terminal carboxyl group; also called ^LA7R; source: synthetic peptide (SPPS, Fmoc chemistry)
B6: Sc-DOTA-Ahx-A7R (peptide)
peptide: {DOTA″-Ahx}-ATWLPPR
modifications: also: Sc chelated by DOTA
notes: A7R peptide with linker and chelator on the N-terminus; also called Sc-1; source: synthetic peptide conjugate (SPPS), complexed with ScCl3

These binders were tested against T1, Recombinant human NRP-1 (neuropilin-1 …) (assay: ELISA; competitive; recombinant human NRP-1 coated on a 96-well plate (200 ng/well, overnight, 4 °C), blocked with 0.5% BSA in PBS; 50 µL compound in PBS (100, 50, 25, 12.5, 6.75 µM) plus 50 µL (400 ng/mL) human (bt)-VEGF-A165 in PBS with 4 µg/mL heparin; 2 h at room temperature; streptavidin-HRP, chemiluminescence; IC50 by nonlinear regression, mean ± SD of three experiments). Conditions: both partners purified.
Work on B1 yielded an IC50 of 4.83 µM.
With B2 the IC50 was 18.1 µM.
B3 was tested, and the IC50 was over 100 µM.
With B4 the IC50 was 17.9 µM.
In the case of B5, the IC50 is reported as 17.5 µM.
Work on B6 yielded an IC50 of 22.5 µM.
